Test results from paper PMC8902816, “Plasmodium falciparum GBP2 Is a Telomere-Associated Protein That Binds to G-Quadruplex DNA and RNA”.

B1: G-rich 1 scram (ssDNA)
DNA: GTGTATGCGTTATGTGTATGCGTGTGAGTG
B2: A/T only (ssDNA)
DNA: TTAAAATTTATAATTATAAATTTTAA
B3: RNA G-rich 2 (ssRNA)
RNA: UUCAGGGUUCAGGGUUCAGGGUUCAGGGUUC

Key:
PfGBP2 [1] = biological target: T1, PfGBP2 (Plasmodium falciparum, UniProt Q8IJX3 1-246); assay: EMSA; 50 ng dIdC; EMSA: 1 ug GBP2 (bacterial extract), 50 ng dIdC, 20 fmol biotin probe, 20 min, room temperature, 200-fold competitor, 0.5x TBE 4-12% gel; dot blot/ThT: oligos folded in 100 uM (so in the source) Tris pH 7.8 and 100 uM KCl, or LiCl up to 1 M; settings: protein: recombinant; tags: 6xHis at N and C termini (pET-28a+); label: 3' biotin (EMSA)
T1 sequence: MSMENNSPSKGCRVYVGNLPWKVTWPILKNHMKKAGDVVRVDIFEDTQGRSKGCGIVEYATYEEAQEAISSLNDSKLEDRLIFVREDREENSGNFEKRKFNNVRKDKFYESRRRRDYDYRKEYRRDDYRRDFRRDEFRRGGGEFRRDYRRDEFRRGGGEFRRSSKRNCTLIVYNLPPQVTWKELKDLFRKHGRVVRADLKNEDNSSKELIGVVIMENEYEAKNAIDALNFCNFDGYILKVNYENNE

PfGBP2 [2] = biological target: T1, PfGBP2; assay: EMSA; 50 ng dIdC; not efficiently competed by unlabeled RNA, partially by unlabeled DNA; EMSA: 1 ug GBP2 (bacterial extract), 50 ng dIdC, 20 fmol biotin probe, 20 min, room temperature, 200-fold competitor, 0.5x TBE 4-12% gel; dot blot/ThT: oligos folded in 100 uM (so in the source) Tris pH 7.8 and 100 uM KCl, or LiCl up to 1 M; settings: protein: recombinant; tags: 6xHis at N and C termini (pET-28a+); label: 3' biotin (EMSA)

Binder | binding result (PfGBP2 [1]) | binding result (PfGBP2 [2])
B1 | no binding | –
B2 | no binding | –
B3 | – | binds
